Data as given in patent US20220227830A1, “QD DOSING OF GIP RECEPTOR AGONIST PEPTIDE COMPOUNDS AND USES THEREOF” (Takeda Pharmaceutical Company Limited, priority 2020, published 2022).
Starred links: 1 amine or outer side, 2 acyl side, 3 side chain; linkers in the order of their positions; H or OH if unused. Non-standard residues stand in square brackets, D forms with d. Groups on a side chain read outwards from the residue. No end group written: not given here. *: point of attachment. C15 diacid = O=C(O)CCCCCCCCCCCCCC(=O)*; γGlu = O=C(O)[C@H](CCC(=O)[*:2])N[*:1]; NMeY = CN[C@@H](Cc1ccc(O)cc1)C(=O)O; AEEA = NCCOCCOCC(=O)O; Aib = CC(C)(N)C(=O)O

Key:
[1] = target: full-length human GLP-1R with an N-terminal FLAG tag (human, UniProt P43220 24-463); test: cell-based or functional assay
[2] = target: T1, full-length human GIPR with an N-terminal FLAG tag (human, UniProt P48546 22-466); test: cell-based or functional assay
T1 sequence (looked up): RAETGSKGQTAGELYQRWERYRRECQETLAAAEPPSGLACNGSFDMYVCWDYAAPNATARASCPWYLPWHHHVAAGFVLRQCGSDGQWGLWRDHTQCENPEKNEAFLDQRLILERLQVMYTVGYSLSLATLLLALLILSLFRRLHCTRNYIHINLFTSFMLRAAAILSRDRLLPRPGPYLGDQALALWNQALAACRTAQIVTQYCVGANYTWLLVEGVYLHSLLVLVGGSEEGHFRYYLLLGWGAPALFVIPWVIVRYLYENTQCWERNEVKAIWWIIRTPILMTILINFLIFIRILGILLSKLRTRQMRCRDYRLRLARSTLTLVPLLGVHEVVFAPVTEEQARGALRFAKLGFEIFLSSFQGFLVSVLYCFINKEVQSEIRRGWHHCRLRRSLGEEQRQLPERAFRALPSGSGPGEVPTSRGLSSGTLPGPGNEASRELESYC

Binder | Human GLP1R cAMP HEK293T EC50 [1] | Human GIPR cAMP, HEK293T EC50 [2]
[NMeY][Aib]EGTFISDYSI[Aib]K([AEEA-γGlu-γGlu-γGlu-C15 diacid])DR[Aib]AQ[Aib]NFVNWLLAQR-NH2 (N-terminus assumed; SMILES CC[C@H](C)[C@H](NC(=O)[C@H](Cc1ccccc1)NC(=O)[C@@H](NC(=O)CNC(=O)[C@H](CCC(=O)O)NC(=O)C(C)(C)NC(=O)[C@H](Cc1ccc(O)cc1)NC)[C@@H](C)O)C(=O)N[C@@H](CO)C(=O)N[C@@H](CC(=O)O)C(=O)N[C@@H](Cc1ccc(O)cc1)C(=O)N[C@@H](CO)C(=O)N[C@H](C(=O)NC(C)(C)C(=O)N[C@@H](CCCCNC(=O)COCCOCCNC(=O)CC[C@H](NC(=O)CC[C@H](NC(=O)CC[C@H](NC(=O)CCCCCCCCCCCCCC(=O)O)C(=O)O)C(=O)O)C(=O)O)C(=O)N[C@@H](CC(=O)O)C(=O)N[C@@H](CCCNC(=N)N)C(=O)NC(C)(C)C(=O)N[C@@H](C)C(=O)N[C@@H](CCC(N)=O)C(=O)NC(C)(C)C(=O)N[C@@H](CC(N)=O)C(=O)N[C@@H](Cc1ccccc1)C(=O)N[C@H](C(=O)N[C@@H](CC(N)=O)C(=O)N[C@@H](Cc1c[nH]c2ccccc12)C(=O)N[C@@H](CC(C)C)C(=O)N[C@@H](CC(C)C)C(=O)N[C@@H](C)C(=O)N[C@@H](CCC(N)=O)C(=O)N[C@@H](CCCNC(=N)N)C(N)=O)C(C)C)[C@@H](C)CC) [Compound 115] | 437 nM | 0.0005 nM
[NMeY][Aib]EGTFISDYSI[Aib]LDR[Aib]KQ[Aib]DFVNWLLAQR-NH2 (not fully specified (residue 18)) [Compound 117] | 1000 nM | 0.0006 nM
[NMeY][Aib]EGTFISDYSI[Aib]K([AEEA-AEEA-γGlu-C15 diacid])DR[Aib]AQ[Aib]DFVNWLLAQRPSSGAPPPS-NH2 (N-terminus assumed; SMILES CC[C@H](C)[C@H](NC(=O)[C@H](Cc1ccccc1)NC(=O)[C@@H](NC(=O)CNC(=O)[C@H](CCC(=O)O)NC(=O)C(C)(C)NC(=O)[C@H](Cc1ccc(O)cc1)NC)[C@@H](C)O)C(=O)N[C@@H](CO)C(=O)N[C@@H](CC(=O)O)C(=O)N[C@@H](Cc1ccc(O)cc1)C(=O)N[C@@H](CO)C(=O)N[C@H](C(=O)NC(C)(C)C(=O)N[C@@H](CCCCNC(=O)COCCOCCNC(=O)COCCOCCNC(=O)CC[C@H](NC(=O)CCCCCCCCCCCCCC(=O)O)C(=O)O)C(=O)N[C@@H](CC(=O)O)C(=O)N[C@@H](CCCNC(=N)N)C(=O)NC(C)(C)C(=O)N[C@@H](C)C(=O)N[C@@H](CCC(N)=O)C(=O)NC(C)(C)C(=O)N[C@@H](CC(=O)O)C(=O)N[C@@H](Cc1ccccc1)C(=O)N[C@H](C(=O)N[C@@H](CC(N)=O)C(=O)N[C@@H](Cc1c[nH]c2ccccc12)C(=O)N[C@@H](CC(C)C)C(=O)N[C@@H](CC(C)C)C(=O)N[C@@H](C)C(=O)N[C@@H](CCC(N)=O)C(=O)N[C@@H](CCCNC(=N)N)C(=O)N1CCC[C@H]1C(=O)N[C@@H](CO)C(=O)N[C@@H](CO)C(=O)NCC(=O)N[C@@H](C)C(=O)N1CCC[C@H]1C(=O)N1CCC[C@H]1C(=O)N1CCC[C@H]1C(=O)N[C@@H](CO)C(N)=O)C(C)C)[C@@H](C)CC) [Compound 116] | 339 nM | 0.0003 nM
